Source: paper PMC11237882 (2024)

T1: Homer1 EVH1 (Homo sapiens, UniProt Q86YM7)
T1 chain: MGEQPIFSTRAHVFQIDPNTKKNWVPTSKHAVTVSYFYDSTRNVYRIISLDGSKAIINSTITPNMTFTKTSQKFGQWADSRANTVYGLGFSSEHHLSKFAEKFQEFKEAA


Assays:
Homer1 EVH1 = target: T1, Homer1 EVH1; assay: BLI
ENAH EVH1 = ENAH EVH1 (Homo sapiens, UniProt Q8N8S7); assay: BLI
Sequence of ENAH EVH1 (Q8N8S7 1-111): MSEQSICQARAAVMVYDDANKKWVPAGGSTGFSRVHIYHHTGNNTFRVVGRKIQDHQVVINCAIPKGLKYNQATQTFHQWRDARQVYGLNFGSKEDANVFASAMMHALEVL

Binder	Kd (Homer1 EVH1)	Kd (ENAH EVH1)
ALPHPGAAPWPMAFPYQYPPPAHPYNPHPGFPELGY [DVL3P1A]	> 150 µM	–
GYPYQYPGPPPCFPPAYQDP [DVL1]	–	> 150 µM
FIAHILPAPPDCFPDKVKAF [FLNC]	–	> 150 µM
RPATGYPLPPQIFNESQYRG [SH3BGRL]	–	> 150 µM
PNHLPLPGPPFSFQNVLVVL [KANK4]	–	> 150 µM
